Entries after “also recorded” stand apart in the source; their conditions may differ. Ends that are not written are not given here.
How the values were obtained:
[1] = molecular target: hamster PrP conversion reaction (PrPsen to PrPres) (Mesocricetus auratus, UniProt P04273); test: biochemical; parameters: species or system Syrian golden hamster
35S-HaPrPsen = 35S-HaPrPsen (Mesocricetus auratus, UniProt P04273); format: biochemical, hamster

Substance | inhibition of the conversion reaction (in words) [1] | peptide induced aggregation of 35S-HaPrPsen (35S-HaPrPsen) | IC50 [1] [µM]
Aβ1-40 | gave no inhibition of conversion; also recorded: unable to inhibit the PrPsen to PrPres conversion at all concentrations tested | caused aggregation and pelleting of 35S-HaPrPsen | –
GAVVGGLGGYMLGSAMSR [P119-130] | – | – | < 100

Reference: patent US6355610B2 (priority 1998, dated 2002)
